Consider 1 molecule from patent US10654918B2, “Inflammatory disease diagnosis and methods of treatment using down-regulators of lipopolysaccharide-responsive beige-like anchor” (University of South Florida, priority 2013, dated 2020).

What all share (format): cell-based, human
One series concerns A549 cells. Briefly: Western blot of A549 and A549 pLAsiGFP cells treated with LPS. The settings on record: for TLR4 levels (Western blot): vs untransfected A549 cells. As for the experimental part:
(§1) FIGS. 4A-B are a blot and graph showing knockdown of LRBA increases the TNFα levels in A549 cells (adenocarcinomic human alveolar basal epithelial cells). A549 cells and A549 pLAsiGFP cells (stably transfected with shRNA plasmid against LRBA) were treated with LPS (1 μg/ml). The TNFα concentrations were detected by Western blot. Cells were cultured in 6-well plates and stimulated with LPS (1 μg/ml) for different time as shown, then lysed with RIPA buffer. Western blots were carried out. TNFα antibody (sc-1351. Santa Cruz Biotechnology, Santa Cruz, USA) was used at 1:500 ratio and incubated at 4° C. overnight. BioRad ChemiDoc XRS and Quantity One software were used to acquire gel image and measure band relative intensity. (A) Western blot. 1. A549 No LPS, 2. A549 LPS 30 min, 3. A549 LPS 1 hr, 4. A549 LPS 2 h, 5. A549 LPS 4 h, 6. A549 LPS 24 h, 7. A549 pLAsiGFP LPS 2 h, 8. A549 pLAsiGFP LPS 4 h, 9. A549 pLAsiGFP LPS 24 h. (B) Band intensity quantification from A.
as §1, with “FIG. 17(A)-(B)” for “FIGS. 4A-B”, “series of graphs” for “blot and graph”, “TLR4” for “TNFα”, “cells.” for “cells (adenocarcinomic human alveolar basal epithelial cells).”
FIGS. 31(A) and (B) are a blot and graph showing knockdown of LRBA decreases the total NFκB levels in A549 cells. A549 LIRII cells (stably transfected with pLRBA-VHS) and A549 pLAsiGFP cells (stably transfected with shRNA plasmid against LRBA) were treated with LPS (1 μg/ml). The NFκB concentrations were detected by Western blot. Cells were cultured in 6-well plates and stimulated with LPS (1 μg/ml) for different time as shown, then lysed with RIPA buffer. Western blots were carried out. NF-κB2 p100/p52 Antibody #4882 (Cell Signaling Technology, Danvers, Mass., USA) was used at 1:500 ratio and incubated at 4° C. overnight. BioRad ChemiDoc XRS and Quantity One software were used to acquire gel image and measure band relative intensity. A. Western blot. B. Band intensity quantification from A.
In general terms: A western blot detects proteins with antibodies after separation by electrophoresis.

The test system of another series is LRBA. Kind of series: Knockdown of LRBA in Raji B cell lines stably transfected with LRBA shRNA. The following applies: three Raji B cell lines stably transfected. How it is done: Three Raji B cell lines stablely transfected with LRBA shRNA that knockdown LRBA over 90% were generated, along with […] mouse cell lines stably transfected with a LRBA DNM.
LRBA was tested for its effect on cell growth. For the “loss of function” strategy, EBV immotalized LRBA-deficient B cell lines were generated from LRBA deficient patients, and dominant negative LRBA mutants (DNM) and knockout mouse models. The LRBA sequence targeted by the shRNA used was SEQ ID No. 15;

Another series has as its system Raji B cells. Briefly: Viable cell count of Raji B cells and Rajisi9 B cells. The settings on record: 10 cells per well, 11 days. How it is done:
FIG. 20 is a graph showing knockdown of LRBA promotes B cell proliferations. Raji B cells and Rajisi9 B cells (Raji B cells stably transfected with shRNA plasmid against LRBA) were culture on a 96 well plate with 10 cells per well for 11 days. Viable cells were counted by the Trypan blue live/dead discrimination method with a Hemocytometer.
Raji B cells and Rajisi9 B cells (Raji B cells stably transfected with shRNA plasmid against LRBA) were cultured in a 96 well plate with 10 cells per well for 9 days. Blockage of LRBA promotes THP1 cell proliferation. THP1 cells (human acute monocytic leukemia cell line) were cultured in 100 μl of RPMI1640 media with or without human LRBA polyclonal IgG antibody at 0.67 μg/ml or the same amount of human actin polyclonal IgG antibody on a 96 well plate with 10 cells per well for 9 days. Viable cells were counted by the trypan blue live/dead discrimination method with a hemocytometer.

B1: LRBA shRNA: shRNA plasmid against LRBA; targeted LRBA sequence SEQ ID No. 15 GGGATATTGTAGAAACTGTCTTT (nucleic acid)
sense: GGGATATTGTAGAAACTGTCTTTTTCAAGAGAAAAGACAGTTTCTACAATATCCCTTTTTT
antisense: CCCTATAACATCTTTGACAGAAAAAGTTCTCTTTTCTGTCAAAGATGTTATAGGGAAAAAA
Turning to B1, the “TLR4 levels (Western blot)” value is “increases” with A549 cells (2 h and 4 h after LPS stimulation (1 μg/ml)); “no difference” in the series with A549 cells (24 h after LPS). Besides, the “total NFκB levels (Western blot)” value with A549 cells (LPS 1 μg/ml, A549 pLAsiGFP cells) was “decreases”. Besides, the “TNFα levels (Western blot)” value in the series with A549 cells (LPS 1 μg/ml, A549 pLAsiGFP vs A549) is on record as “increases”. In the series on LRBA, the “knockdown of LRBA” value is “over 90%”. Further, in the series with Raji B cells, the “B cell proliferations (viable cells, Trypan blue)” value is listed as “promotes”.
